The record followed here is the supplement of paper PMC9112550, “Optimization of the antimicrobial peptide Bac7 by deep mutational scanning” (BMC Biology, 2022).
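Further: peptides expressed intracellularly from a pBAD plasmid library in pooled LB shake-flask culture, induced with 0.3% L-arabinose, DNA abundance read by NGS, three biological replicates, DESeq2 with apeglm shrinkage.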

The subject of the data set is Escherichia coli TOP10. Description: shrunken log2 fold change of peptide-encoding DNA abundance (4.5 h post-induction vs induction); higher = less antimicrobial activity (less host growth inhibition). To be noted: time post-induction: 4.5 h; library: site-saturation at positions 5, 18, 19, 20.
For RRIRWRPPRLPRPRPRPQNDPRP, the “shrunken log2 fold change” value is -0.0722. Then RRIRSRPPRLPRPRPRPYMTPRP, with -0.586; and RRIRFRPPRLPRPRPRPLAMPRP, with -0.0206; and RRIRRRPPRLPRPRPRPFPPPRP, with 0.222. In the case of RRIRMRPPRLPRPRPRPEIYPRP, the “shrunken log2 fold change” value amounted to 0.106. With RRIRIRPPRLPRPRPRPLIHPRP, the “shrunken log2 fold change” value was -0.556. With RRIRERPPRLPRPRPRPMFKPRP, the “shrunken log2 fold change” value was -0.204.

With RRIRNRPPRLPRPRPRPCTWPRP, the “shrunken log2 fold change” value was 0.0117. Then RRIRFRPPRLPRPRPRPTDVPRP, with 0.0385; and RRIRGRPPRLPRPRPRPMMPPRP, with 0.119; and RRIRDRPPRLPRPRPRPDWFPRP, with -0.0209. Consider RRIRRRPPRLPRPRPRPYYTPRP, for which the “shrunken log2 fold change” value amounted to 1.46. Then RRIRIRPPRLPRPRPRPPARPRP, with 0.393. In the case of RRIRVRPPRLPRPRPRPADVPRP, the “shrunken log2 fold change” value was determined as 0.000571. Then RRIRDRPPRLPRPRPRPRMRPRP, with 0.984; and RRIRKRPPRLPRPRPRPWYGPRP, with -0.188. Then RRIRWRPPRLPRPRPRPRNSPRP, with 0.0821; and RRIRNRPPRLPRPRPRPEKQPRP, with 0.0721.

Take RRIRGRPPRLPRPRPRPLVYPRP: the “shrunken log2 fold change” value came out at 0.0199. On to RRIRDRPPRLPRPRPRPCCWPRP, for which the “shrunken log2 fold change” value turned out to be 0.582.

For the sequence RRIRCRPPRLPRPRPRPAPAPRP, the “shrunken log2 fold change” value worked out at 0.84.

Regarding RRIRFRPPRLPRPRPRPSQMPRP, the “shrunken log2 fold change” value is -0.208. For RRIRWRPPRLPRPRPRPANMPRP the value was -0.0899. For the sequence RRIRSRPPRLPRPRPRPAHFPRP, the “shrunken log2 fold change” value is -0.418. Then RRIRNRPPRLPRPRPRPYITPRP, with -0.292. Turning to RRIRYRPPRLPRPRPRPGMGPRP, the “shrunken log2 fold change” value was -0.195.

Regarding RRIRDRPPRLPRPRPRPWHLPRP, the “shrunken log2 fold change” value is -0.231.

Regarding RRIRIRPPRLPRPRPRPKTPPRP, the “shrunken log2 fold change” value is -0.0573. For RRIRIRPPRLPRPRPRPIVGPRP the value was 0.00911; for RRIRSRPPRLPRPRPRPSGHPRP, -0.433; for RRIRSRPPRLPRPRPRPEVRPRP, -0.109.

RRIRMRPPRLPRPRPRPTGHPRP: the “shrunken log2 fold change” value is 0.63. Then RRIRCRPPRLPRPRPRPKVKPRP, with -0.133; and RRIRGRPPRLPRPRPRPFQNPRP, with 0.31. Then RRIRHRPPRLPRPRPRPLQMPRP, with -0.147; and RRIRTRPPRLPRPRPRPCLDPRP, with -0.405. Then RRIRHRPPRLPRPRPRPVGCPRP, with 0.0698; and RRIRVRPPRLPRPRPRPWNLPRP, with -0.14; and RRIRWRPPRLPRPRPRPQRCPRP, with 0.103.

In the case of RRIRKRPPRLPRPRPRPQTRPRP, the “shrunken log2 fold change” value amounted to 0.358.

In the case of RRIRCRPPRLPRPRPRPIRSPRP, the “shrunken log2 fold change” value was -0.389. For the sequence RRIRGRPPRLPRPRPRPYNRPRP, the “shrunken log2 fold change” value is 0.00858. In the case of RRIRRRPPRLPRPRPRPRKGPRP, the “shrunken log2 fold change” value came out at 0.215.

For RRIRARPPRLPRPRPRPPPRPRP, the “shrunken log2 fold change” value came out at 1.56. Then RRIRFRPPRLPRPRPRPHDVPRP, with -0.00911; and RRIRLRPPRLPRPRPRPAHVPRP, with 0.241. Turning to RRIRVRPPRLPRPRPRPTHNPRP, the “shrunken log2 fold change” value came out at 0.0759. Then RRIRRRPPRLPRPRPRPAWAPRP, with 0.791. For RRIRKRPPRLPRPRPRPCQLPRP the value was -0.0631; for RRIRWRPPRLPRPRPRPSLLPRP, 0.0919. Then RRIRLRPPRLPRPRPRPYRMPRP, with -1.54; and RRIRVRPPRLPRPRPRPMCKPRP, with -0.508.

For RRIRWRPPRLPRPRPRPARGPRP, the “shrunken log2 fold change” value was 0.687. For RRIRERPPRLPRPRPRPCFCPRP the value was -0.318; for RRIRRRPPRLPRPRPRPSYRPRP, -0.142.

On to RRIRPRPPRLPRPRPRPNCYPRP, for which the “shrunken log2 fold change” value was -0.344. For RRIRNRPPRLPRPRPRPKSAPRP, the “shrunken log2 fold change” value amounted to 0.265. RRIRWRPPRLPRPRPRPHFMPRP: the “shrunken log2 fold change” value is -0.398.

Take RRIRCRPPRLPRPRPRPRLVPRP: the “shrunken log2 fold change” value turned out to be 0.0587. Take RRIRHRPPRLPRPRPRPDKMPRP: the “shrunken log2 fold change” value is -0.0794. On to RRIRERPPRLPRPRPRPPRQPRP, for which the “shrunken log2 fold change” value stood at 0.26. For RRIRQRPPRLPRPRPRPALYPRP the value was 0.172. For RRIRHRPPRLPRPRPRPACFPRP the value was -0.126; for RRIRPRPPRLPRPRPRPYYVPRP, -1.25. In the case of RRIRHRPPRLPRPRPRPEYNPRP, the “shrunken log2 fold change” value is -0.329. For the sequence RRIRWRPPRLPRPRPRPLADPRP, the “shrunken log2 fold change” value amounted to 1.06. For RRIRMRPPRLPRPRPRPDCYPRP, the “shrunken log2 fold change” value is -0.15. For RRIRGRPPRLPRPRPRPVAFPRP the value was 0.722.

Consider RRIRERPPRLPRPRPRPGNLPRP, for which the “shrunken log2 fold change” value is -0.17. Then RRIRPRPPRLPRPRPRPEGLPRP, with 0.491; and RRIRFRPPRLPRPRPRPDAEPRP, with 0.373.

Take RRIRVRPPRLPRPRPRPKFWPRP: the “shrunken log2 fold change” value amounted to 0.48. As for RRIRGRPPRLPRPRPRPGQHPRP, the “shrunken log2 fold change” value came to 0.0185. For RRIRARPPRLPRPRPRPLMEPRP the value was 0.493.

For the sequence RRIRSRPPRLPRPRPRPLVLPRP, the “shrunken log2 fold change” value was -0.233.

With RRIRWRPPRLPRPRPRPSLIPRP, the “shrunken log2 fold change” value was -0.574. As to RRIRPRPPRLPRPRPRPQMLPRP, the “shrunken log2 fold change” value stood at 0.0602. For RRIRDRPPRLPRPRPRPVGFPRP the value was 0.859; for RRIRGRPPRLPRPRPRPWLEPRP, 0.303; for RRIRKRPPRLPRPRPRPEKIPRP, 0.185. Then RRIRCRPPRLPRPRPRPFGPPRP, with -0.283; and RRIRPRPPRLPRPRPRPRFYPRP, with 0.0111; and RRIRLRPPRLPRPRPRPHPWPRP, with -0.0939. With RRIRWRPPRLPRPRPRPPCEPRP, the “shrunken log2 fold change” value came out at 0.379. Then RRIRSRPPRLPRPRPRPPHMPRP, with -0.0602; and RRIRGRPPRLPRPRPRPCRFPRP, with 0.116.

Take RRIRTRPPRLPRPRPRPGFPPRP: the “shrunken log2 fold change” value is -0.0413. For RRIRMRPPRLPRPRPRPNKGPRP the value was 0.0758; for RRIRYRPPRLPRPRPRPLCRPRP, -0.863; for RRIRHRPPRLPRPRPRPTLHPRP, 0.0488. For RRIRYRPPRLPRPRPRPWELPRP the value was 0.0358; for RRIRRRPPRLPRPRPRPKNMPRP, -0.00338; for RRIRSRPPRLPRPRPRPAFIPRP, -0.0885. On to RRIRVRPPRLPRPRPRPNVYPRP, for which the “shrunken log2 fold change” value was -0.787.

In the case of RRIRCRPPRLPRPRPRPRERPRP, the “shrunken log2 fold change” value was determined as 0.875. Then RRIRWRPPRLPRPRPRPTQLPRP, with 0.0699; and RRIRWRPPRLPRPRPRPTESPRP, with 0.189; and RRIRERPPRLPRPRPRPEQCPRP, with -0.0274. On to RRIRVRPPRLPRPRPRPDDYPRP, for which the “shrunken log2 fold change” value was -0.272. For RRIRVRPPRLPRPRPRPRYLPRP the value was -0.184. For RRIRMRPPRLPRPRPRPLSCPRP the value was 0.163.

With RRIRGRPPRLPRPRPRPPMDPRP, the “shrunken log2 fold change” value was 0.597. Then RRIRRRPPRLPRPRPRPGRDPRP, with 0.717. For RRIRYRPPRLPRPRPRPIQGPRP the value was -0.0804; for RRIRDRPPRLPRPRPRPPHEPRP, 0.00485; for RRIRIRPPRLPRPRPRPQVAPRP, -0.333. As for RRIRPRPPRLPRPRPRPYECPRP, the “shrunken log2 fold change” value was 0.0143.

On to RRIRHRPPRLPRPRPRPQDPPRP, for which the “shrunken log2 fold change” value was found to be 0.0646. Then RRIRERPPRLPRPRPRPTRNPRP, with 0.22. Consider RRIRERPPRLPRPRPRPEVSPRP, for which the “shrunken log2 fold change” value was determined as 0.0769.

For RRIRPRPPRLPRPRPRPWNLPRP, the “shrunken log2 fold change” value is -0.365. For RRIRFRPPRLPRPRPRPLMTPRP the value was 0.189; for RRIRERPPRLPRPRPRPVESPRP, -0.0262. For RRIRIRPPRLPRPRPRPVGAPRP the value was 0.475; for RRIRPRPPRLPRPRPRPSIFPRP, -0.284. For the sequence RRIRYRPPRLPRPRPRPNNIPRP, the “shrunken log2 fold change” value was -1.24.

In the case of RRIRHRPPRLPRPRPRPIGEPRP, the “shrunken log2 fold change” value is -0.00286.

For the sequence RRIRYRPPRLPRPRPRPPAGPRP, the “shrunken log2 fold change” value amounted to 0.322. For RRIRYRPPRLPRPRPRPTCEPRP, the “shrunken log2 fold change” value came out at 0.00952.

For the sequence RRIRQRPPRLPRPRPRPFLFPRP, the “shrunken log2 fold change” value was -0.288. On to RRIRHRPPRLPRPRPRPLYQPRP, for which the “shrunken log2 fold change” value was -0.112. With RRIRYRPPRLPRPRPRPSGSPRP, the “shrunken log2 fold change” value is -0.0607. Then RRIRMRPPRLPRPRPRPMLIPRP, with -0.00481; and RRIRARPPRLPRPRPRPDMEPRP, with -0.0243. Consider RRIRRRPPRLPRPRPRPLHQPRP, for which the “shrunken log2 fold change” value was found to be 0.32.
